Source: patent US20220332804A1 (CSL INNOVATION, published 2022)
Residue numbers refer to the chain shown, from its start.

Legend:
Test in all cases: SPR, antibody captured, C2 as analyte;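 further: biacore SPR at 37 °C, anti-C2 mAbs captured via goat anti-human IgG on CM5 chips, double-referenced sensorgrams fit to a 1:1 kinetic or steady-state model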
human C2 V465A = molecular target: T1, human C2 V465A (human, UniProt P06681 21-752)
T1 sequence: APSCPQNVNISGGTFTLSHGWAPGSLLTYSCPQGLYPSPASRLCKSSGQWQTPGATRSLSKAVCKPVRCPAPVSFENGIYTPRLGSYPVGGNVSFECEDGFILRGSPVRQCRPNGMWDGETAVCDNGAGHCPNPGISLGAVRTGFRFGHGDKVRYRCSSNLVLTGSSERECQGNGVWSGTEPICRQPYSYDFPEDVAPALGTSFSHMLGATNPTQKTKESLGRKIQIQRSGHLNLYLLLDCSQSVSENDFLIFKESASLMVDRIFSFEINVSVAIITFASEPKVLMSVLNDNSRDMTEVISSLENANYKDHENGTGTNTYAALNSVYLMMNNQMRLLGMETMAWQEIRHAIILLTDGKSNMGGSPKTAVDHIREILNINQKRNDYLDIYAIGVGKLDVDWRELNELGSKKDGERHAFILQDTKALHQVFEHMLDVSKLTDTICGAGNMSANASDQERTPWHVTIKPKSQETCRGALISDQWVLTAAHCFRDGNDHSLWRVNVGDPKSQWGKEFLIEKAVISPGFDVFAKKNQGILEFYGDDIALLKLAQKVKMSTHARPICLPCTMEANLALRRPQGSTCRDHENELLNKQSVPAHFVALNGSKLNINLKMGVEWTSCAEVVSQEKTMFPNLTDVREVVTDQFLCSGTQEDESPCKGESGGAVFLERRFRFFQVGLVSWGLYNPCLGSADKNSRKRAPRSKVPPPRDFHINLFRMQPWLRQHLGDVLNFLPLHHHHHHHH

human C2 P723A = molecular target: T2, human C2 P723A (human, UniProt P06681 21-752)
T2 sequence: T1 sequence with A445V, P703A

human C2 V418A = molecular target: T3, human C2 V418A (human, UniProt P06681 21-752)
T3 sequence: T1 sequence with V398A, A445V

human C2 G707A = molecular target: T4, human C2 G707A (human, UniProt P06681 21-752)
T4 sequence: T1 sequence with A445V, G687A

B1: RF16-226 (antibody, human IgG4 S228P, lambda)
heavy: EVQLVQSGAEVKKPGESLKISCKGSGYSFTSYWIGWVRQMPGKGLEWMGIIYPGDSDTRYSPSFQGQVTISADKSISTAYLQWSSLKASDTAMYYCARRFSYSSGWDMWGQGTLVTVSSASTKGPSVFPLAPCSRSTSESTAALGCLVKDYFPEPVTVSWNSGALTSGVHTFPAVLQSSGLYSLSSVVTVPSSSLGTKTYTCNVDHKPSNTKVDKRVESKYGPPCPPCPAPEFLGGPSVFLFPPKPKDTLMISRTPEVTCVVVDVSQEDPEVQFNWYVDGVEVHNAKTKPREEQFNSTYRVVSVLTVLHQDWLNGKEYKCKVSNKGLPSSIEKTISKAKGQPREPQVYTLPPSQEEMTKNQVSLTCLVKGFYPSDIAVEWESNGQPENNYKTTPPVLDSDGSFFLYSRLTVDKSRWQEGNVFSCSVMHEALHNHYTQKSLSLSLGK
light: SYELTQPPSVSVSPGQTARITCSGDALTSKYVAWYQQKSGLAPLLVIYEDTRRPSGIPAKFSGSSSGSVATLTISGAHGDDEADYYCYSTDASGHQRVFGGGTKLTVLSQPKAAPSVTLFPPSSEELQANKATLVCLISDFYPGAVTVAWKADGSPVKAGVETTKPSKQSNNKYAASSYLSLTPEQWKSHRSYSCQVTHEGSTVEKTVAPTECS
notes: pH-dependent anti-C2 antibody from a phage display library; also called WT
B1 showed a Kd (human C2 V465A) of 17.1 nM, a Kd (human C2 P723A) of 122 nM and a Kd (human C2 V418A) of 8 nM. It also gave a Kd (human C2 G707A) of 19.4 nM.
